Where a chain is given by its changes, count along the chain named. Names may count otherwise.
B1: H4H9659P (antibody, human IgG4, V domains shown)
VH: QVQLVQSGAEVKKPGASVKVSCKASGYTFNSYGISWVRQAPGQGLEWMGWISSHNGNSHYVQKFQGRVSMTTDTSTSTAYMELRSLRSDDTAVYYCARHSYTTSWYGGFDYWGQGTLVTVSS
VL: DIQMTQSPSSVSASVGDRVTITCRASQGFSSWLAWYQQKPGKAPQLLIYAASSLQSGVPSRFSGSGSGSDFTLTISSLQPEDFATYYCQQANSFPLTFGGGTKVEIK
notes: Human IgG4 Fc (H4H)
B2: H4H9664P (antibody, human IgG4, V domains shown)
VH: QVQLVESGGGVVQPGRSLRLSCAASGFTFSSYGLHWVRQSPGKGLEWVALISYDGSNKYYADSVKGRFTISRDNSKNTLYLQMNSLRPEDTAGYFCAKSLYTTSWYGGFDYWGQGTLVTVSS
VL: B1 VL with F29I, S30R, Q45N, S69T, L96P, G100P, E105D
notes: Human IgG4 Fc (H4H)
B3: H4H9660P (antibody, human IgG4, V domains shown)
VH: EVQLVESGGGLVQPGGSLRLSCAASGITLSSYGMSWVRQAPGKGLEWVASIFGSGGGPYYADSVKGRFTMSRDNSKNTLYLQMNSLRAEDTAVYYCAKDRYSGSYYGGFDYWGRGTLVTVSS
VL: B1 VL with F29I, S30T, Q45T, S56T, S69T, D82H, L96P
notes: Human IgG4 Fc (H4H)
B4: H4H9663P (antibody, human IgG4, V domains shown)
VH: QVQLVQSGAEVKKPGASVKVSCKASGYTFTGHYMYWMRQAPGQGLEWMGWINPNSGGTNYAQKFQDRVTMTRDTSISTAYMELSRLRSDDTAVYYCARGRYGSSWYGGFEYWGQGTLVTVSS
VL: B1 VL with F29I, S30T, Q45N, S52A, S69T, A84T, N92Y, F94L
notes: Human IgG4 Fc (H4H)
B5: H4H9665P (antibody, human IgG4, V domains shown)
VH: EVQLVESGGGLVQPGGSLRLSCAASGFTFSNYAMTWVRQAPGKGLEWVSTISGSGDNTYYADSVQGRFTISRGHSKNTLYLQMNSLRAEDTAVYYCAKPTYSRSWYGAFDFWGQGTMVTVSS
VL: B1 VL with F29I, S53R, S63W, S69T, S93N, L96F, G100P, E105D
notes: Human IgG4 Fc (H4H)
B6: H4H9662P (antibody, V domains shown)
VH: EVQLVESGGGLVQPGGSLRLSCAASGFTFSSYALTWVRQAPGKGLEWVSFISGSGGRPFYADSVKGRFTISRDNSKNMLYLQMNSLRAEDTAIYYCAKSLYTTSWYGGFDSWGQGTLVTVSS
VL: B1 VL with F29V, S30V, Q45K, S69T, A91S, L96F, F98L, G100P, E105D
notes: Human IgG4 Fc (H4H)

Columns and labels:
[1] = biological target: T1, cynomolgus monkey IL-33 expressed with a C-terminal hexahistidine tag (cynomolgus monkey); experiment: BLI; captured MfIL-33-6His, mAb-1 step with Isotype control
T1 construct: also called MfIL-33-6His; Mf-IL-33-6His
T1 chain: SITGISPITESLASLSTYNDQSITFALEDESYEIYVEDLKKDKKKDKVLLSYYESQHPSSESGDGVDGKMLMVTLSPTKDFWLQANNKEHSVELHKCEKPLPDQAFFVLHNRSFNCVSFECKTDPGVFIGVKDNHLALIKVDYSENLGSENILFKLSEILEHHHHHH
Experimental: (§1) Binding competition between a panel of different anti-IL-33 monoclonal antibodies was determined using a real time, label-free bio-layer interferometry assay on an Octet® HTX biosensor (ForteBio, A Division of Pall Life Sciences). The experiment was performed at 25° C. using a buffer of 0.01M HEPES pH7.4, 0.15M NaCl, 3 mM EDTA, 0.05% v/v Surfactant Tween-20, and 0.1 mg/ml BSA (HBS-ET kinetics buffer) with the plate shaking at a speed of 1000 rpm. […] The antigen-captured biosensors were then saturated with a first anti-IL-33 monoclonal antibody (subsequently referred to as mAb-1) by immersion into wells containing 50 μg/mL solution of mAb-1 for 5 minutes. The biosensors were then dipped into wells containing a 50 μg/mL solution of a second anti-IL-33 monoclonal antibody (subsequently referred to as mAb-2) for 4 minutes. The biosensors were washed in HBS-ET kinetics buffer in between every step of the experiment. The real-time binding response was monitored during the experiment, and the maximum binding response for each binding step was recorded. The response of mAb-2 binding to MfIL-33-6His pre-complexed with mAb-1 was measured, and competitive/non-competitive behavior of different anti-IL-33 monoclonal antibodies with respect to each other was determined.

[2] = biological target: T1, cynomolgus monkey IL-33 expressed with …; experiment: BLI; captured MfIL-33-6His, mAb-1 step with Buffer
Experimental: as §1

[3] = biological target: T2, pre-formed complex of hIL-33 and captured hST2-MMH (human, UniProt O95760 112-270); experiment: SPR 25C, 100 nM mAb over hIL-33/hST2-MMH complex
T2 construct: Ligand-receptor complex on the sensor: hST2-MMH captured by anti-myc mAb and saturated with 100 nM hIL-33; also called hIL-33 pre-complexed with hST2-MMH
Experimental: The ability of anti-IL-33 antibodies to bind to a pre-formed complex of IL-33 with ST2 was tested using Biacore T-200 instrument equipped with a real-time surface plasmon resonance biosensor. The experiment was performed at 25° C. with a running buffer composed of 0.01M HEPES pH 7.4, 0.15M NaCl, 3 mM EDTA, and 0.05% v/v Surfactant Tween-20 (HBS-ET). […] The captured hST2-MMH surface was then saturated by injecting 100 nM of human IL-33 (hIL-33; R&D Systems, #3625-IL-010/CF) for 3 minutes followed by a 3 minute injection of a 100 nM solution of the anti-IL-33 monoclonal antibody. The real-time binding response was monitored during the entire course of the experiment, and the observed binding response at 3 minutes after injection of anti-IL-33 antibody to the pre-formed complex of hIL-33 and captured hST2-MMH was recorded and tabulated and shown in Table 7. No non-specific binding of anti-IL-33 monoclonal antibody to the anti-myc tag capture surface was observed.

[4] = biological target: T1, cynomolgus monkey IL-33 expressed with …; experiment: SPR 25C pH7.4, mAb captured
Experimental: (§2) Equilibrium dissociation constants (KD values) for IL-33 binding to purified anti-IL-33 monoclonal antibodies were determined using a real-time surface plasmon resonance biosensor using a Biacore 4000 instrument. The Biacore sensor surface was first derivatized by amine coupling with either a polyclonal rabbit anti-mouse antibody (GE, # BR-1008-38) or with a monoclonal mouse anti-human Fc antibody (GE, # BR-1008-39) to capture anti-IL-33 monoclonal antibodies expressed with mouse or with human IgG4 constant regions, respectively. All Biacore binding studies were performed in 0.01M ADA pH 7.4, 0.15M NaCl, 3 mM EDTA, and 0.05% v/v Surfactant Tween-20 (ABS-ET running buffer). […] Association of either hIL-33 or MfIL-33-6His to the captured monoclonal antibody was monitored for 4 minutes and their dissociation in ABS-ET running buffer was monitored for 10 minutes. The effect of reduced pH on the binding of each anti-IL-33 antibody to either hIL-33 or MfIL-33-6His was studied using an in-line pH chase assay format in 0.01M ADA pH 6.0, 0.15M NaCl, 3 mM EDTA, and 0.05% v/v Surfactant Tween-20 (ABS-ET pH6 buffer). To achieve this, association of either hIL-33 or MfIL-33-6His to the captured monoclonal antibody was monitored for 4 minutes in ABS-ET running buffer. Following a 30 second dissociation of either hIL-33 or MfIL-33-6His in ABS-ET running buffer, ABS-ET pH6 buffer was injected for 3 minutes, and the analyte dissociation under the low-pH conditions was measured. All the binding kinetic experiments were performed at both 25° C. and 37° C. Kinetic association (kₐ) and dissociation (kd) constants were determined by fitting the real-time sensorgrams to a 1:1 binding model using Scrubber 2.0c curve fitting software. Binding dissociation equilibrium constants (KD) and dissociative half-lives (t½) were calculated from the kinetic rate constants as: […]

[5] = biological target: T3, human IL-33 (R&D Systems, #3625-IL-010/CF) (human, UniProt O95760 112-270); experiment: SPR 25C pH7.4, mAb captured
T3 construct: Commercial recombinant protein; also called hIL-33; interleukin-33
T3 sequence (looked up): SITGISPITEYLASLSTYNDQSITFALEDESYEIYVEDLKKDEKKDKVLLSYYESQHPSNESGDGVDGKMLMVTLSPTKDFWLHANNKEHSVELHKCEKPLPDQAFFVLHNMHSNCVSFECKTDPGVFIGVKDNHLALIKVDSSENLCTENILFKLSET
Experimental: as §2

[6] = biological target: T1, cynomolgus monkey IL-33 expressed with …; experiment: BLI; mAb-1 on captured MfIL-33-6His
Experimental: as §1

[7] = biological target: T1, cynomolgus monkey IL-33 expressed with …; experiment: cell-based or functional assay
[8] = biological target: T3, human IL-33 (R&D Systems, …); experiment: cell-based or functional assay

Row | Binder | mAb-2 Binding to the Pre-complex of mAb-1 & MfIL-33-6xHis [1] [nm] | mAb-2 Binding to the Pre-complex of mAb-1 & MfIL-33-6xHis [2] [nm] | Antibody Binding Response (RU) [3] [RU] | Kd [4] [nM] | koff [4] [s⁻¹] | kon [4] [M⁻¹ s⁻¹] | t½ [4] [min] | Kd [5] [nM] | koff [5] [s⁻¹] | kon [5] [M⁻¹ s⁻¹] | t½ [5] [min] | mAb-1 Binding (nm) [6] [nm] | IC50, inhibition of 5 pM MfIL-33-6His activation of HEK293/hST2/NFkB-luciferase cells [7] [M] | IC50, inhibition of 10 pM hIL-33 activation of HEK293/hST2/NFkB-luciferase cells [8] [M]
1 | B1 | 0.25 | 0.31 | -1 | 1.5 | 0.000486 | 325000 | 24 | 0.327 | 0.000172 | 526000 | 67 | 0.56 | 3.3e-09 | 4.7e-11
2 | B2 | 0.27 | 0.31 | -1 | 11.8 | 0.00165 | 140000 | 7 | 0.757 | 0.000257 | 339000 | 45 | 0.61 | 2.6e-08 | 5e-11
3 | B3 | 0.26 | 0.3 | -1 | 3.49 | 0.00149 | 426000 | 8 | 0.322 | 0.000224 | 696000 | 52 | 0.58 | 1.9e-08 | 3.5e-11
4 | B4 | 0.23 | 0.31 | -1 | 1.06 | 0.000925 | 869000 | 12 | 0.305 | 0.000414 | 1.36e+06 | 28 | 0.54 | 2.7e-09 | 1.3e-10
5 | B5 | 0.3 | 0.33 | 0 | 1.02 | 0.000566 | 557000 | 20 | 0.533 | 0.000474 | 888000 | 24 | 0.63 | 6.6e-10 | 9e-11
6 | B6 | 0.22 | 0.26 | 0 | 1.25 | 0.000442 | 353000 | 26 | 0.308 | 0.00025 | 811000 | 46 | 0.56 | 1.5e-09 | 2e-11
